Source: PMC12485048

Biological target: Ca2+/calmodulin-dependent protein kinase II (CaMKII) (mouse (endogenous in striatum)) (UniProt P28652)
Assay: co-IP; endogenous proteins in mouse striatum lysate (20 mM Tris-HCl pH 7.4, 50 mM NaCl, 0.5% NP-40, 10 mM HEPES, 0.5 mM EDTA); 2 μg primary antibody on Protein A/G or Protein G magnetic beads, lysate at 4 °C overnight; western blot; for CaMKII–PPP1CC, WT and Sh3rf2 KO striatum compared

Chain of UniProt P28652 (P28652 whole entry): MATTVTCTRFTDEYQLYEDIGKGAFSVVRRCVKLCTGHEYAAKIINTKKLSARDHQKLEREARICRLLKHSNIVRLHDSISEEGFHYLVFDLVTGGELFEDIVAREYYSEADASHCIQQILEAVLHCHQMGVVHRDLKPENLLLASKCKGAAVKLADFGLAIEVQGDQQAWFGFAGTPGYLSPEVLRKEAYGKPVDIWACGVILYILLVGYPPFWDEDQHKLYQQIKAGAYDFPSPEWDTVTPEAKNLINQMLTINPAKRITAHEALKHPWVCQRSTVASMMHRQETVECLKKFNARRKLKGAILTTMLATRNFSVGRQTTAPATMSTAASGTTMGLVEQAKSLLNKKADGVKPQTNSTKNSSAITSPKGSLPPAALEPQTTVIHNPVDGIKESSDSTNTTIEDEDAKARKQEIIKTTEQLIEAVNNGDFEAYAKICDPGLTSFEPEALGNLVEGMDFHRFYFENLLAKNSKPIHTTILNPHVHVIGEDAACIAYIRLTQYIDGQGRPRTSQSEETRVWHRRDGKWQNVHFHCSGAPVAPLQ

reduction of CaMKII–PPP1CC co-precipitate in Sh3rf2 KO against WT striatum: 80%
Substance: PP1 catalytic subunit gamma (PPP1CC) (from UniProt P63087 1-323) (enzyme)
